# T1: human FcγRIIa type H (human, UniProt P12318 36-217)
# T1 construct: also called FcyRIIaH; FcγRIIa(H)
# T1 sequence: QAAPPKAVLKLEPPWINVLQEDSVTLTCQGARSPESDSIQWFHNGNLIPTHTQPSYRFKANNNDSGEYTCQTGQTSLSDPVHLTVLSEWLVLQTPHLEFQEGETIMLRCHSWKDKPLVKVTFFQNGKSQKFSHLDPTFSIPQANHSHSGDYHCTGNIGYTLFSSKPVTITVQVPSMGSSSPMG
# T2: human FcγRIIb (human, UniProt P31994 43-217, limits assumed)
# T2 construct: also called FcyRIfb; FcγIIB
# T2 sequence: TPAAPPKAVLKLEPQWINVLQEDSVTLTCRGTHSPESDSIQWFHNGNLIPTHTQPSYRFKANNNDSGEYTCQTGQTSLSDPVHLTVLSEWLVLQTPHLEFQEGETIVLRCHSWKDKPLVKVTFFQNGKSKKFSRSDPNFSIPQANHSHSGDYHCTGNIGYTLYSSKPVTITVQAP
# How the values were obtained:
# Experiment in all cases: SPR (Biacore), FcγR over captured antibody; binding amount relative to IL6R-BF648/IL6R-L x100
# human FcγRIa = molecular target: T3, human FcγRIa (human, UniProt P12314 16-292, limits assumed)
# T3 construct: also called FcyRIa; CD64
# T3 sequence (P12314 16-292 limits assumed): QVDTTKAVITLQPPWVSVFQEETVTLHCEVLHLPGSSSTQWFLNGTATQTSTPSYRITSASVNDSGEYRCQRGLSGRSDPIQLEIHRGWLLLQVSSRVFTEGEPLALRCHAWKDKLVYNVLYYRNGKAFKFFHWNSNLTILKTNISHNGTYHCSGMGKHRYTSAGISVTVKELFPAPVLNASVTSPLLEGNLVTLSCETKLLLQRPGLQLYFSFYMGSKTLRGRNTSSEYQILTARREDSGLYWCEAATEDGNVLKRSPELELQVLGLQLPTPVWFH
# human FcγRIIa type H = molecular target: T1, human FcγRIIa type H
# human FcγRIIb = molecular target: T2, human FcγRIIb
# human FcγRIIIa type V = molecular target: T4, human FcγRIIIa type V (human, UniProt P08637 17-208, limits assumed)
# T4 construct: also called FcyRIIIa; FcγRIIIaV
# T4 sequence (P08637 other isoform, or with tags, fused parts or gaps limits assumed): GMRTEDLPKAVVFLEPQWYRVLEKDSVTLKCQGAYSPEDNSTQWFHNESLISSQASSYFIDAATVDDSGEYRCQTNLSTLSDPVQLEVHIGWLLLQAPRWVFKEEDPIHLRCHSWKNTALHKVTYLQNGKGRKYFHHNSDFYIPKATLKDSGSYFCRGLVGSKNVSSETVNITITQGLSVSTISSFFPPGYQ
Binder,relative binding (human FcγRIa),relative binding (human FcγRIIa type H),relative binding (human FcγRIIb),relative binding (human FcγRIIIa type V)
"IL6R-BP107/IL6R-L (antibody, human IgG1, name in EU numbering) heavy: QVQLQESGPGLVKPSETLSLTCAVSGHSISHDHAWSWVRQPPGEGLEWIGFISYSGITNYNPSLQGRVTISRDNSKNTLYLQMNSLRAEDTAVYYCARSLARTTAMDYWGEGTLVTVSSASTKGPSVFPLAPSSKSTSGGTAALGCLVKDYFPEPVTVSWNSGALTSGVHTFPAVLQSSGLYSLSSVVTVPSSSLGTQTYICNVNHKPSNTKVDKKVEPKSCDKTHTCPPCPAPELLGGDSVFLFPPKPKDTLMISRTPEVTCVVVDVSEEDPEVKFNWYVDGVEVHNAKTKPREEQYNSTYRVVSVLTVLHQDWLNGKEYKCKVSNKALPAPIEKTISKAKGQPREPQVYTLPPSRDELTKNQVSLTCLVKGFYPSDIAVEWESNGQPENNYKTTPPVLDSDGSFFLYSKLTVDKSRWQQGNVFSCSVMHEALHNHYTQESLSLSP light: DIQMTQSPSSLSASVGDRVTITCRASQDISSYLNWYQQKPGKAPKLLIYYTSRLHSGVPSRFSGSGSGTDFTFTISSLQPEDIATYYCQQGNTLPYTFGQGTKVEIK",123 % of IL6R-BF648/IL6R-L,114 % of IL6R-BF648/IL6R-L,118 % of IL6R-BF648/IL6R-L,129 % of IL6R-BF648/IL6R-L
"IL6R-BP116/IL6R-L (antibody, human IgG1, name in EU numbering) heavy: QVQLQESGPGLVKPSETLSLTCAVSGHSISHDHAWSWVRQPPGEGLEWIGFISYSGITNYNPSLQGRVTISRDNSKNTLYLQMNSLRAEDTAVYYCARSLARTTAMDYWGEGTLVTVSSASTKGPSVFPLAPSSKSTSGGTAALGCLVKDYFPEPVTVSWNSGALTSGVHTFPAVLQSSGLYSLSSVVTVPSSSLGTQTYICNVNHKPSNTKVDKKVEPKSCDKTHTCPPCPAPELLGGDSVFLFPPKPKDTLMISRTPEVTCVVVDVSHEDPEVKFNWYVDGVEVHNAKTKPREEQYNSTYRVVSVLTVLHQDWLNGKEYKCKVSNTALPAPIEKTISKAKGQPREPQVYTLPPSRDELTKNQVSLTCLVKGFYPSDIAVEWESNGQPENNYKTTPPVLDSDGSFFLYSKLTVDKSRWQQGNVFSCSVMHEALHNHYTQESLSLSP light: DIQMTQSPSSLSASVGDRVTITCRASQDISSYLNWYQQKPGKAPKLLIYYTSRLHSGVPSRFSGSGSGTDFTFTISSLQPEDIATYYCQQGNTLPYTFGQGTKVEIK",110 % of IL6R-BF648/IL6R-L,110 % of IL6R-BF648/IL6R-L,108 % of IL6R-BF648/IL6R-L,114 % of IL6R-BF648/IL6R-L
"IL6R-BP118/IL6R-L (antibody, human IgG1, name in EU numbering) heavy: QVQLQESGPGLVKPSETLSLTCAVSGHSISHDHAWSWVRQPPGEGLEWIGFISYSGITNYNPSLQGRVTISRDNSKNTLYLQMNSLRAEDTAVYYCARSLARTTAMDYWGEGTLVTVSSASTKGPSVFPLAPSSKSTSGGTAALGCLVKDYFPEPVTVSWNSGALTSGVHTFPAVLQSSGLYSLSSVVTVPSSSLGTQTYICNVNHKPSNTKVDKKVEPKSCDKTHTCPPCPAPELLGGDSVFLFPPKPKDTLMISRTPEVTCVVVDVSHEDPEVKFNWYVDGVEVHNAKTKPREEQYNSTYRVVSVLTVLHQDWLNGKEYKCKVSNSALPAPIEKTISKAKGQPREPQVYTLPPSRDELTKNQVSLTCLVKGFYPSDIAVEWESNGQPENNYKTTPPVLDSDGSFFLYSKLTVDKSRWQQGNVFSCSVMHEALHNHYTQESLSLSP light: DIQMTQSPSSLSASVGDRVTITCRASQDISSYLNWYQQKPGKAPKLLIYYTSRLHSGVPSRFSGSGSGTDFTFTISSLQPEDIATYYCQQGNTLPYTFGQGTKVEIK",101 % of IL6R-BF648/IL6R-L,128 % of IL6R-BF648/IL6R-L,104 % of IL6R-BF648/IL6R-L,144 % of IL6R-BF648/IL6R-L
"IL6R-BP119/IL6R-L (antibody, human IgG1, name in EU numbering) heavy: QVQLQESGPGLVKPSETLSLTCAVSGHSISHDHAWSWVRQPPGEGLEWIGFISYSGITNYNPSLQGRVTISRDNSKNTLYLQMNSLRAEDTAVYYCARSLARTTAMDYWGEGTLVTVSSASTKGPSVFPLAPSSKSTSGGTAALGCLVKDYFPEPVTVSWNSGALTSGVHTFPAVLQSSGLYSLSSVVTVPSSSLGTQTYICNVNHKPSNTKVDKKVEPKSCDKTHTCPPCPAPELLGGDSVFLFPPKPKDTLMISRTPEVTCVVVDVSHEDPEVKFNWYVDGVEVHNAKTKPREEQYNSTYRVVSVLTVLHQDWLNGKEYKCKVSNMALPAPIEKTISKAKGQPREPQVYTLPPSRDELTKNQVSLTCLVKGFYPSDIAVEWESNGQPENNYKTTPPVLDSDGSFFLYSKLTVDKSRWQQGNVFSCSVMHEALHNHYTQESLSLSP light: DIQMTQSPSSLSASVGDRVTITCRASQDISSYLNWYQQKPGKAPKLLIYYTSRLHSGVPSRFSGSGSGTDFTFTISSLQPEDIATYYCQQGNTLPYTFGQGTKVEIK",117 % of IL6R-BF648/IL6R-L,133 % of IL6R-BF648/IL6R-L,110 % of IL6R-BF648/IL6R-L,145 % of IL6R-BF648/IL6R-L
"IL6R-BP121/IL6R-L (antibody, human IgG1, name in EU numbering) heavy: QVQLQESGPGLVKPSETLSLTCAVSGHSISHDHAWSWVRQPPGEGLEWIGFISYSGITNYNPSLQGRVTISRDNSKNTLYLQMNSLRAEDTAVYYCARSLARTTAMDYWGEGTLVTVSSASTKGPSVFPLAPSSKSTSGGTAALGCLVKDYFPEPVTVSWNSGALTSGVHTFPAVLQSSGLYSLSSVVTVPSSSLGTQTYICNVNHKPSNTKVDKKVEPKSCDKTHTCPPCPAPELLGGDSVFLFPPKPKDTLMISRTPEVTCVVVDVSHEDPEVKFNWYVDGVEVHNAKTKPREEQYNSTYRVVSVLTVLHQDWLNGKEYKCKVSNQALPAPIEKTISKAKGQPREPQVYTLPPSRDELTKNQVSLTCLVKGFYPSDIAVEWESNGQPENNYKTTPPVLDSDGSFFLYSKLTVDKSRWQQGNVFSCSVMHEALHNHYTQESLSLSP light: DIQMTQSPSSLSASVGDRVTITCRASQDISSYLNWYQQKPGKAPKLLIYYTSRLHSGVPSRFSGSGSGTDFTFTISSLQPEDIATYYCQQGNTLPYTFGQGTKVEIK",118 % of IL6R-BF648/IL6R-L,135 % of IL6R-BF648/IL6R-L,113 % of IL6R-BF648/IL6R-L,157 % of IL6R-BF648/IL6R-L
"IL6R-BP136/IL6R-L (antibody, human IgG1, name in EU numbering) heavy: QVQLQESGPGLVKPSETLSLTCAVSGHSISHDHAWSWVRQPPGEGLEWIGFISYSGITNYNPSLQGRVTISRDNSKNTLYLQMNSLRAEDTAVYYCARSLARTTAMDYWGEGTLVTVSSASTKGPSVFPLAPSSKSTSGGTAALGCLVKDYFPEPVTVSWNSGALTSGVHTFPAVLQSSGLYSLSSVVTVPSSSLGTQTYICNVNHKPSNTKVDKKVEPKSCDKTHTCPPCPAPELLGGDSVFLFPPKPKDTLMISRTPEVTCVVVDVSHEDPEVKFNWYVDGVEVHNAKTKPREEQYNSTYRVVSVLTVLHQDWLNGKEYKCKVSNAALPAPIEKTISKAKGQPREPQVYTLPPSRDELTKNQVSLTCLVKGFYPSDIAVEWESNGQPENNYKTTPPVLDSDGSFFLYSKLTVDKSRWQQGNVFSCSVMHEALHNHYTQESLSLSP light: DIQMTQSPSSLSASVGDRVTITCRASQDISSYLNWYQQKPGKAPKLLIYYTSRLHSGVPSRFSGSGSGTDFTFTISSLQPEDIATYYCQQGNTLPYTFGQGTKVEIK",117 % of IL6R-BF648/IL6R-L,103 % of IL6R-BF648/IL6R-L,119 % of IL6R-BF648/IL6R-L,102 % of IL6R-BF648/IL6R-L
"IL6R-BP142/IL6R-L (antibody, human IgG1, name in EU numbering) heavy: QVQLQESGPGLVKPSETLSLTCAVSGHSISHDHAWSWVRQPPGEGLEWIGFISYSGITNYNPSLQGRVTISRDNSKNTLYLQMNSLRAEDTAVYYCARSLARTTAMDYWGEGTLVTVSSASTKGPSVFPLAPSSKSTSGGTAALGCLVKDYFPEPVTVSWNSGALTSGVHTFPAVLQSSGLYSLSSVVTVPSSSLGTQTYICNVNHKPSNTKVDKKVEPKSCDKTHTCPPCPAPELLGGDSVFLFPPKPKDTLMISRTPEVTCVVVDVSHEDPEVKFNWYVDGVEVHNAKTKPREEQYNSTYRVVSVLTVLHQDWLNGKEYKCKVSNNALPAPIEKTISKAKGQPREPQVYTLPPSRDELTKNQVSLTCLVKGFYPSDIAVEWESNGQPENNYKTTPPVLDSDGSFFLYSKLTVDKSRWQQGNVFSCSVMHEALHNHYTQESLSLSP light: DIQMTQSPSSLSASVGDRVTITCRASQDISSYLNWYQQKPGKAPKLLIYYTSRLHSGVPSRFSGSGSGTDFTFTISSLQPEDIATYYCQQGNTLPYTFGQGTKVEIK",98 % of IL6R-BF648/IL6R-L,97 % of IL6R-BF648/IL6R-L,106 % of IL6R-BF648/IL6R-L,102 % of IL6R-BF648/IL6R-L
"IL6R-BP911/IL6R-L (antibody, human IgG1, name in EU numbering) heavy: QVQLQESGPGLVKPSETLSLTCAVSGHSISHDHAWSWVRQPPGEGLEWIGFISYSGITNYNPSLQGRVTISRDNSKNTLYLQMNSLRAEDTAVYYCARSLARTTAMDYWGEGTLVTVSSASTKGPSVFPLAPSSKSTSGGTAALGCLVKDYFPEPVTVSWNSGALTSGVHTFPAVLQSSGLYSLSSVVTVPSSSLGTQTYICNVNHKPSNTKVDKKVEPKSCDKTHTCPPCPAPELLGGDSVFLFPPKPKDTLMISRTPEVTCVVVDVSHEDPEVKFNWYVDGVEVHNAKTKPREEQYNSTYRVVSVLTVLHQDWLNGKEYKCKVSNKALPKPIEKTISKAKGQPREPQVYTLPPSRDELTKNQVSLTCLVKGFYPSDIAVEWESNGQPENNYKTTPPVLDSDGSFFLYSKLTVDKSRWQQGNVFSCSVMHEALHNHYTQESLSLSP light: DIQMTQSPSSLSASVGDRVTITCRASQDISSYLNWYQQKPGKAPKLLIYYTSRLHSGVPSRFSGSGSGTDFTFTISSLQPEDIATYYCQQGNTLPYTFGQGTKVEIK",52 % of IL6R-BF648/IL6R-L,108 % of IL6R-BF648/IL6R-L,119 % of IL6R-BF648/IL6R-L,120 % of IL6R-BF648/IL6R-L
"IL6R-G1d/IL6R-L (antibody, human IgG1, Anti-human IL-6 receptor IgG1 with the G1d constant region (C-terminal Gly and Lys removed); also called IgG1) heavy: not shown light: DIQMTQSPSSLSASVGDRVTITCRASQDISSYLNWYQQKPGKAPKLLIYYTSRLHSGVPSRFSGSGSGTDFTFTISSLQPEDIATYYCQQGNTLPYTFGQGTKVEIK",140 % of IL6R-BF648/IL6R-L,1670 % of IL6R-BF648/IL6R-L,62 % of IL6R-BF648/IL6R-L,3350 % of IL6R-BF648/IL6R-L

# From patent US20230257470A1 (published 2023)
